Target: PARP (Cricetulus griseus, UniProt Q9R152)
Assay: PARP inhibition in transfected CHO dhfr- cells, 3H-NAD incorporation
Conditions: H2O2 0.06%; cells co-expressing LTRPC2 and PARP-1 dominant negative mutant versus LTRPC2 alone

PARP, sequence (Q9R152 2-1013): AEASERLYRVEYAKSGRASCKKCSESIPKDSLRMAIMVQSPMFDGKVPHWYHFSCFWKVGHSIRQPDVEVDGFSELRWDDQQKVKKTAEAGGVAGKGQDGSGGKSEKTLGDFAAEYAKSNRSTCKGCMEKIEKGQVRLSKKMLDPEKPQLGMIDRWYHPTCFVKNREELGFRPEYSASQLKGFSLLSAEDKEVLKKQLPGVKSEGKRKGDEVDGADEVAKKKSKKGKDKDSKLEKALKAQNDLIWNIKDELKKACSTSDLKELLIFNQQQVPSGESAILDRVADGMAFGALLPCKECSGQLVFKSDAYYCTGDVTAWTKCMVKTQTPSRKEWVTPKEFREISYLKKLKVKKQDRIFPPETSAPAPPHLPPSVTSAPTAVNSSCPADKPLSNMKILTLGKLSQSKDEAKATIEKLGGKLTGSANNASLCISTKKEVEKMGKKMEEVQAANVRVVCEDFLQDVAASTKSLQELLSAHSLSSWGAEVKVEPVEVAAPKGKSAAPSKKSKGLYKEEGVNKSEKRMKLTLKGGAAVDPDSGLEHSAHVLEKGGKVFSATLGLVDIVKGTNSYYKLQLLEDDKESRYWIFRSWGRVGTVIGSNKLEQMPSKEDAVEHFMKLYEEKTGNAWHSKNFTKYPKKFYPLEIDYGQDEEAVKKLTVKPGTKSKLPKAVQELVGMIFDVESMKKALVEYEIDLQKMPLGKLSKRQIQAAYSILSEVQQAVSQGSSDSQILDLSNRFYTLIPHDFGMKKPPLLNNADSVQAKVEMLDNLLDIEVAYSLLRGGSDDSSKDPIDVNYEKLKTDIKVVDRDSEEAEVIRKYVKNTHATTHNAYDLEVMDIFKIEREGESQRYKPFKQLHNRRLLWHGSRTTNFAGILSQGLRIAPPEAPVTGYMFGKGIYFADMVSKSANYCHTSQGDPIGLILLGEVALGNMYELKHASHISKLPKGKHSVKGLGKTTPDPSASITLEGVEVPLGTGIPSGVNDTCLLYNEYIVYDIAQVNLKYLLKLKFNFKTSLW

PARP-1 dominant negative mutant: human PARP-1 DNA binding region (positions 1 to 374), amino acid sequence SEQ ID NO:20, co-expressed in cells
3H radioactivity in comparison with the control cells: 67%
